Results published in IntAct's records for PubMed 11001931.

These substances were tested against fhl2_human FHL2 (UniProt Q14192).
Sequence of fhl2_human FHL2 (Q14192 whole entry): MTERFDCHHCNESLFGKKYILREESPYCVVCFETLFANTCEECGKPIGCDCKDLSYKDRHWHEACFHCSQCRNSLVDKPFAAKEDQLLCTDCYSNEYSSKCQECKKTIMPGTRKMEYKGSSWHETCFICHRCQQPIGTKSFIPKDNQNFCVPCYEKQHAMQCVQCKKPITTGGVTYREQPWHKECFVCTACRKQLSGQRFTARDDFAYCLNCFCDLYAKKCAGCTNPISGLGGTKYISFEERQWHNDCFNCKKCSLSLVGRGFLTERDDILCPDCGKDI

Sequence of Presenilin-2 (Homo sapiens), P49810 K271A (P49810 whole entry K271A): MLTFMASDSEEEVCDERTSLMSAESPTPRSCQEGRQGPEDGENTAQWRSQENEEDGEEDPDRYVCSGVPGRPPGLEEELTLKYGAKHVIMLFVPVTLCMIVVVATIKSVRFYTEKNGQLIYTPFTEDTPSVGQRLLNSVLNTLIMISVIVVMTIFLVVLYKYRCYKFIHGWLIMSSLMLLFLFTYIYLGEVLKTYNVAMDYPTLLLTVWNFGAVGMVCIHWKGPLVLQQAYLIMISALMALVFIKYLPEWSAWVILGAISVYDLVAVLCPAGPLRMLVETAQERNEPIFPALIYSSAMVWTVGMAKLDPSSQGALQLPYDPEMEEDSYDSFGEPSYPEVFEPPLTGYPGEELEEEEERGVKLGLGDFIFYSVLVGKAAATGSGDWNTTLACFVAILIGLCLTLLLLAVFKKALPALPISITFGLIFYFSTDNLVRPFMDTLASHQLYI
Sequence of Presenilin-2 (Homo sapiens), P49810 L277A (P49810 whole entry L277A): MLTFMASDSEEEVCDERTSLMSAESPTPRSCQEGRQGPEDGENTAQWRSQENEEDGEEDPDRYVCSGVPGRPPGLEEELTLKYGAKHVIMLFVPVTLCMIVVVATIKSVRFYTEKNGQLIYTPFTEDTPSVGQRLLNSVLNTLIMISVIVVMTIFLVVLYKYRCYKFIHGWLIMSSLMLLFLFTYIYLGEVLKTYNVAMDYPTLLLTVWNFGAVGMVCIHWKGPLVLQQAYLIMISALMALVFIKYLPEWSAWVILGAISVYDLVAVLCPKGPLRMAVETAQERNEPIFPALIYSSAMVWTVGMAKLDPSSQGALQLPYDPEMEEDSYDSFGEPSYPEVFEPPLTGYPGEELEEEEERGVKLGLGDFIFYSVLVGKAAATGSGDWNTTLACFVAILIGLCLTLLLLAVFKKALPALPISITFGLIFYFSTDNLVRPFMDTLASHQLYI
Sequence of Presenilin-2 (Homo sapiens), P49810 L274A (P49810 whole entry L274A): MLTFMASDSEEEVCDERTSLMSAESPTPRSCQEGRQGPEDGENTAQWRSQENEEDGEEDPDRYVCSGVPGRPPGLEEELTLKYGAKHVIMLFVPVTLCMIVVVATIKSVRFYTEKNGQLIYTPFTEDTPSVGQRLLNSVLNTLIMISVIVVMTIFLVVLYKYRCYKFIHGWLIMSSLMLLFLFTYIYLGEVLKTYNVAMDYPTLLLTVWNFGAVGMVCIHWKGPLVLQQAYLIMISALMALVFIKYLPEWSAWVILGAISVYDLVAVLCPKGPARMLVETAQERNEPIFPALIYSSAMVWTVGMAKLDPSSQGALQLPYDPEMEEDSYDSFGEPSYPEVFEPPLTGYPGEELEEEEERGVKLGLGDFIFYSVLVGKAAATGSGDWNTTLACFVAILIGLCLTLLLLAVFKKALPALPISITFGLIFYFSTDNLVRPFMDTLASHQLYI
Sequence of Presenilin-2 (Homo sapiens), P49810 P270A (P49810 whole entry P270A): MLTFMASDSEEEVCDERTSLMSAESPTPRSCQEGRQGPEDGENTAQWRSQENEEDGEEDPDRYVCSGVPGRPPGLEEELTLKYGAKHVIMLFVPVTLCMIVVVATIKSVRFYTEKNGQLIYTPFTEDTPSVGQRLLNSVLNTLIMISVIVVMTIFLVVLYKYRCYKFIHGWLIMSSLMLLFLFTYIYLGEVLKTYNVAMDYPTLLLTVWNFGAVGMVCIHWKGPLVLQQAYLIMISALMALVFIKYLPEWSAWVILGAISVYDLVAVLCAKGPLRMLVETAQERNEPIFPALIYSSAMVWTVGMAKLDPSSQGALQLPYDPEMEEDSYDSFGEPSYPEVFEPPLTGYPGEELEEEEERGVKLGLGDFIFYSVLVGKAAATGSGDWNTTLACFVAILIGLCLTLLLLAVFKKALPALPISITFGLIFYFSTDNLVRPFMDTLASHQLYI
Sequence of Presenilin-2 (Homo sapiens), P49810 R275A (P49810 whole entry R275A): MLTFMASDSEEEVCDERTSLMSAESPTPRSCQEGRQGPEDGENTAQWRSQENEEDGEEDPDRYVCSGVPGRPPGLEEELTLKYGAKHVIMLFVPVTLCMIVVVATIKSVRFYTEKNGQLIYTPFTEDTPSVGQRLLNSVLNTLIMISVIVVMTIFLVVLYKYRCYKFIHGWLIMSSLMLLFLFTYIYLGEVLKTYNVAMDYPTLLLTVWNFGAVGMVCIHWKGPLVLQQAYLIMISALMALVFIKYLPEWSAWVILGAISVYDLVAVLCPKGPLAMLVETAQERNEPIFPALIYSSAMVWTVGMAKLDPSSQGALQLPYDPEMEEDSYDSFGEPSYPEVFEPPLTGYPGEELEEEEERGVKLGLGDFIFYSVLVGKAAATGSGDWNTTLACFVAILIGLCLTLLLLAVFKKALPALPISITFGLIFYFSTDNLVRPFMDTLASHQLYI
Sequence of Presenilin-2 (Homo sapiens), P49810 V278A (P49810 whole entry V278A): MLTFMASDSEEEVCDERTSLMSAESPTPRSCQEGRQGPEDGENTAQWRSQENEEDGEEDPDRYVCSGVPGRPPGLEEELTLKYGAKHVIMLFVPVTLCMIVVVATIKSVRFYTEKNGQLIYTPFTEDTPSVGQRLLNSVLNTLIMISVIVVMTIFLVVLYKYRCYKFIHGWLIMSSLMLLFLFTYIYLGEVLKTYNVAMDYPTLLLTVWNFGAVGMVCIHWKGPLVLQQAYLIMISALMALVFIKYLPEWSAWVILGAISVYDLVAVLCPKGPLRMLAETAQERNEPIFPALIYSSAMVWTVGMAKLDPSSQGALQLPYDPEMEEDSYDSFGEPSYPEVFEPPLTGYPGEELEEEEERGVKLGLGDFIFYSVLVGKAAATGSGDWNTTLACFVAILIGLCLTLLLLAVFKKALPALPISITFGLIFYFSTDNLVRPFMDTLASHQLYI
Sequence of Presenilin-2 (Homo sapiens), P49810 G272A (P49810 whole entry G272A): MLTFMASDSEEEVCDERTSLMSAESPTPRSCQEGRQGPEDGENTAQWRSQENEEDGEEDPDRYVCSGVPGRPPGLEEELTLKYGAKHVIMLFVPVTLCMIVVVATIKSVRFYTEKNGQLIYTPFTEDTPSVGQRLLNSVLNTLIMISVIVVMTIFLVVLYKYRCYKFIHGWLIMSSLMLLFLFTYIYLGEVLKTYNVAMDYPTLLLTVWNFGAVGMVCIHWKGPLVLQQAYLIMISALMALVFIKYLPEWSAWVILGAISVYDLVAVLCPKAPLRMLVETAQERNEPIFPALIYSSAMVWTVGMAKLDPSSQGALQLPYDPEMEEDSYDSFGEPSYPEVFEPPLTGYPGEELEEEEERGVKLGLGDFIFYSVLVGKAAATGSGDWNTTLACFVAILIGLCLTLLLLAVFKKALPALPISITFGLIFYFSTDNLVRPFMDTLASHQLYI
Sequence of Presenilin-2 (Homo sapiens), P49810 P273A (P49810 whole entry P273A): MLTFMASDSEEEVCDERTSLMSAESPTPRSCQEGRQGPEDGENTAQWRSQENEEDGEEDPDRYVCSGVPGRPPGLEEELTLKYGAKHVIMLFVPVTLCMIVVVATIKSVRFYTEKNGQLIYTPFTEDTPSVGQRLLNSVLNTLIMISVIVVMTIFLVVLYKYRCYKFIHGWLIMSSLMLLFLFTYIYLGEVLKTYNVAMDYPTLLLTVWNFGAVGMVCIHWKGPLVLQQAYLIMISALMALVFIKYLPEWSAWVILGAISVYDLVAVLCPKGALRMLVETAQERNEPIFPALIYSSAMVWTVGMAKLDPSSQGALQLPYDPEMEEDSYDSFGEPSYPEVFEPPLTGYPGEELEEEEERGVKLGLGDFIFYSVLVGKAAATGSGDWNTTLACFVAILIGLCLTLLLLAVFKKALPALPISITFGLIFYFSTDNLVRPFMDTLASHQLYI
Sequence of Presenilin-2 (Homo sapiens), P49810 E279A (P49810 whole entry E279A): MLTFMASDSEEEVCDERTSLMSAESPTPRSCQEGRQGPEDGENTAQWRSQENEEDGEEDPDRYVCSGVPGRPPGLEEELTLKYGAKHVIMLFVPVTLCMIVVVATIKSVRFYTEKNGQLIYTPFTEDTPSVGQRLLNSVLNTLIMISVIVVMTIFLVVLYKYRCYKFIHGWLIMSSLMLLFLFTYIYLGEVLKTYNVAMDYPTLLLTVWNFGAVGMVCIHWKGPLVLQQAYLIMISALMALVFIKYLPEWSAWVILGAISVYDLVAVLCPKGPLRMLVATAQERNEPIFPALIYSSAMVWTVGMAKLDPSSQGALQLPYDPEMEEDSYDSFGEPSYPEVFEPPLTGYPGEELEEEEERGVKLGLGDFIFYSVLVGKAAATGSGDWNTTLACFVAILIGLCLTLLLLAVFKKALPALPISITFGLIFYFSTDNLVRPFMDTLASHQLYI
Sequence of Presenilin-2 (Homo sapiens), P49810 M276A (P49810 whole entry M276A): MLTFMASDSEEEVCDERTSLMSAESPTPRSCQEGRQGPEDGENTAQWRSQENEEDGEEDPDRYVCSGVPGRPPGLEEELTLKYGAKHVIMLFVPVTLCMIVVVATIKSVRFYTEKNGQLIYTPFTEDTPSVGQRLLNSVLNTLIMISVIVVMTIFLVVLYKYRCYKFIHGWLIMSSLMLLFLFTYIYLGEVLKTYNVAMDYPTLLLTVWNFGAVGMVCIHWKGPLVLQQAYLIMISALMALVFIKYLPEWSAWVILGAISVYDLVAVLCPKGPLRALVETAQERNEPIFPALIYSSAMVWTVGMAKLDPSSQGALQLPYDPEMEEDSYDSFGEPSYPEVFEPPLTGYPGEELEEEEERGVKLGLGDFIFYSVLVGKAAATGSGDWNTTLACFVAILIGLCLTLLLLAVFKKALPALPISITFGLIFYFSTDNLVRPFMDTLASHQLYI

| effect of a mutation on the interaction | Substance |
| --- | --- |
| decreasing interaction strength | Presenilin-2 (Homo sapiens), P49810 M276A |
| decreasing interaction strength | Presenilin-2 (Homo sapiens), P49810 P273A |
| disrupting interaction strength | Presenilin-2 (Homo sapiens), P49810 R275A |
| decreasing interaction strength | Presenilin-2 (Homo sapiens), P49810 P270A |
| with no effect | Presenilin-2 (Homo sapiens), P49810 K271A |
| decreasing interaction strength | Presenilin-2 (Homo sapiens), P49810 E279A |
| decreasing interaction strength | Presenilin-2 (Homo sapiens), P49810 V278A |
| decreasing interaction strength | Presenilin-2 (Homo sapiens), P49810 G272A |
| decreasing interaction strength | Presenilin-2 (Homo sapiens), P49810 L277A |
| decreasing interaction strength | Presenilin-2 (Homo sapiens), P49810 L274A |
